Test results as given in the supplement of paper PMC9732359.
± gives the uncertainty stated by the source.

Test: protein stability index of a GFP-peptide fusion (yeast GPS) (PSI 1-4); higher = more stable; sorted into four equal gates, so the index is relative within each strain
Conditions: pdr5∆
Outline: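 Tiled 17-residue peptides from yeast proteins were fused downstream of GFP on a plasmid that also expresses Cherry, and the pooled library was carried in yeast. Mid-log cultures grown in leucine-free medium were sorted into four equal gates by GFP/Cherry fluorescence ratio. Plasmids from each gate were PCR-amplified and Illumina-sequenced, and reads were assigned to strains by barcodes. Each peptide's protein stability index is the sum, over gates, of the gate's read frequency multiplied by its gate number.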

Sequence	protein stability index
KFSSRHGQKGVCGIIVK [RET1]	3.51 ± 0.092

Same assay, conditions: san1∆

Sequence	protein stability index
INTHIETLAYNSLKETL [SNF2]	2.5 ± 0.047
IPDHLAELIPELYSFQQ [SNF12]	2.95 ± 0.05
IPQSQQVPQVRSMSGQP [SNF5]	2.5 ± 0.047
IPRTFRTPVPSTLMPGG [SNF5]	2.44 ± 0.045
IPSLQNNIEENLRLLNS [ECM29]	3.34 ± 0.055
IPYAAKLLFQELLSMNI [RET1]	1.31 ± 0.16
IQAGKFDNKSTSEEQEA [SNF2]	2.84 ± 0.17
IQNDIYLNDLMITKRIL [RPN12]	2.72 ± 0.25
IQQHARYDCSFCGKKTV [RPL43A]	2.81 ± 0.065
IQSSLMTNLTYFLHLSV [YCS4]	1.89 ± 0.085
IQVAAFIYGMSAKDHPK [PRP8]	3.19 ± 0.082
IQVLTEASSLGYLDDSE [IRR1]	1.76 ± 0.1
IRDPLTQTGLLQDLEEA [RPC82]	3.15 ± 0.28
IRDSIPQMDSFDKDLER [DIS3]	3.19 ± 0.061
IREGQNQKIPDNVIVIN [SIR3]	2.98 ± 0.057
IREIDVTGGKKALVLFV [RPS7B]	1.3 ± 0.21
IREINYTMSNHGMSVDP [RPO31]	3.03 ± 0.11
IRGKILTGTVVSTKMHR [RPS11A]	2.79 ± 0.052
IRKDPNNLSNQLETLTG [CSE2]	2.68 ± 0.11
IRNCATEAGFFAIRDDR [RPT4]	2.78 ± 0.097
IRTILVNIHHLLNEYRP [MED7]	1.65 ± 0.12
IRYNAKRRNWRRTKMNI [RPL39]	3.07 ± 0.095
ISAEDRADTDLAMNDDD [SNF2]	3.35 ± 0.069
ISAFTQFLRLIFVSILS [ARP9]	2.9 ± 0.12
ISCPLIGVIQLAHYVVT [FAS1]	1.24 ± 0.093

Sequence	protein stability index
ISDYQQLESIYFRILLP [SWI1]	2.06 ± 0.049
ISENTFPNGFKNFENGP [RPC34]	2.91 ± 0.052
ISFRSNLLKNFISSNDA [SNF6]	2.35 ± 0.21
ISKDCSAFACKTDEVII [BRR2]	3.44 ± 0.088
ISKTTLTLDPRYIWRSL [RPN3]	2.5 ± 0.085
ISPESVFGTLGELIKVN [SMC3]	1.84 ± 0.096
ISSRTFGQRAVLKFAAH [RPS0A]	2.69 ± 0.089
ISTLQVKLYGREGSSAR [RPB2]	2.77 ± 0.18
ISTSDVTRIINSSEIQS [RPL4A]	2.34 ± 0.071
ISVNSSSFSLTFFPRCI [POP1]	2.44 ± 0.039
ITFHPKIRARSITLQGD [SMC2]	2.69 ± 0.051
ITFLQTLYIGNTANGRP [ECM29]	2.6 ± 0.16
ITLENITRLCQTLGLES [MED1]	1.91 ± 0.055
ITPMNDDQCMLITTYSK [SIN4]	1.98 ± 0.22
ITQDGKFAYKIDKITDG [YMR129W/POM152]	2.81 ± 0.063
ITSGGFLLKAYINVSRG [SRB5]	2.32 ± 0.15
ITSWYENHNKGKLWKDV [QCR9]	3.3 ± 0.1
ITTFVKRSTVPLNDGFV [YML103C/NUP188]	1.91 ± 0.11
ITYDKQEPSASQVKDSV [SRP68]	2.98 ± 0.053
IVDFTLPPPPPPPGLDE [PRP8]	3.2 ± 0.038
IVGVLQDDADPMVSVMK [RPT2]	2.49 ± 0.11
IVHDDPASDDILDNINH [ITC1]	3.04 ± 0.09
IVKGNIIDEIKCIPKKG [POP4]	2.29 ± 0.06
IVLLDDEGKEIPATIFD [TAF14]	3.04 ± 0.035
IVLSDQTQEFFLSSFDD [YJL039C/NUP192]	2.92 ± 0.057
